We go through four molecules from paper PMC3806761, “Characterization of the Akt2 Domain Essential for Binding Nuclear p21cip1 to Promote Cell Cycle Arrest during Myogenic Differentiation” (PLoS ONE, 2013).

In experiment [1] the target is T1, recombinant human p21cip1 (human, UniProt P38936 1-164).
T1 construct: In the functional row this molecule stands for p21cip1 endogenous in human myoblasts; source: recombinant, purified
As to the kind of experiment: pull-down; MBP-tagged Akt2 peptides bound to amylose resin, incubated with p21 (1 µg and 5 µg), extensively washed, maltose-fusion peptides eluted, blotted with anti-p21. Particulars: both partners purified.

The target of experiment [2] is T1, recombinant human p21cip1. As to the kind of experiment: pull-down; purified His-tagged Akt2 proteins and His-tagged p21cip1 incubated together on ice; p21cip1 immunoprecipitated with anti-p21; immunoprecipitates probed for Akt2 by Western blot. Particulars: both partners purified.

T1 sequence (P38936 whole entry): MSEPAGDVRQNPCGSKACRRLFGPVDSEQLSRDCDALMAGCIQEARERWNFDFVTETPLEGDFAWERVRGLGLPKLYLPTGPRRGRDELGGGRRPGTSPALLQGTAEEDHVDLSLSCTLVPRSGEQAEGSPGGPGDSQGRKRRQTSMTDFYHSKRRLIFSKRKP

B1: Akt2 (400–445) maltose binding fusion protein (domain or fragment, human, UniProt P31751 400-445, looked up)
chain: AKEVMEHRFFLSINWQDVVQKKLLPPFKPQVTSEVDTRYFDDEFTA
notes: The methods name no vector for this construct
For B1, the binding result in experiment [1] is “binds”.

B2: Akt2 (420–445) maltose binding fusion protein (domain or fragment, human, UniProt P31751 420-445, looked up)
chain: KKLLPPFKPQVTSEVDTRYFDDEFTA
notes: as for B1
In the case of B2, the binding result in experiment [1] was “binds”.

B3: Akt2 (400–481) (domain or fragment, human, UniProt P31751 400-481, looked up)
chain: AKEVMEHRFFLSINWQDVVQKKLLPPFKPQVTSEVDTRYFDDEFTAQSITITPPDRYDSLGLLELDQRTHFPQFSYSASIRE
notes: The tag is therefore uncertain; source: expressed in bacteria, purified; not shown: His6, C-terminal, kept
As to B3, in experiment [2], the binding result is reported as “binds”.

B4: Akt2 (350–481) (domain or fragment, human, UniProt P31751 350-481, looked up)
chain: FYNQDHERLFELILMEEIRFPRTLSPEAKSLLAGLLKKDPKQRLGGGPSDAKEVMEHRFFLSINWQDVVQKKLLPPFKPQVTSEVDTRYFDDEFTAQSITITPPDRYDSLGLLELDQRTHFPQFSYSASIRE
notes: as for B3
Turning to B4, the binding result in experiment [2] was “binds”.
